Consider 2 molecules from article PMC9998874, “Deacetylation induced nuclear condensation of HP1γ promotes multiple myeloma drug resistance” (Nature Communications, 2023).

What all share (settings): both partners purified
The target of one assay is T1, purified HDAC1-flag (UniProt Q13547 1-482).
T1 construct: histone deacetylase 1 with a flag tag; also called HDAC1-flag fusion protein; flag-HDAC1; source: HEK293T, expressed, purified
As to the kind of experiment: pull-down; GST pull-down in vitro: GST-tagged HP1γ held, purified HDAC1-flag as input.

For another assay, the target named is T2, GST-MDC1-mC-IDR2 (UniProt Q14676 354-539).
T2 construct: MDC1 intrinsically disordered region 2 (IDR2), residues 354-539; In the droplet and turbidity assays the protein is called mCherry-MDC1-IDR2; also called GST-tagged-mCherry-MDC1-IDR2; MDC1-IDR2; source: purified
T2 sequence (looked up): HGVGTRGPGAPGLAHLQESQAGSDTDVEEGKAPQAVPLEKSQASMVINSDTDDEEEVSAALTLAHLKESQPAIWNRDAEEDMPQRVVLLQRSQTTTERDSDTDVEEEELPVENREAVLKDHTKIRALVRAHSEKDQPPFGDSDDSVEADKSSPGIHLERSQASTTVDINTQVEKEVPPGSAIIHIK
In words: pull-down; GST pull-down in vitro: GST-tagged mCherry-MDC1-IDR1 or -IDR2 held, purified HP1γ-GFP.

The next assay has as its target T3, GST-MDC1-mC-IDR1 (UniProt Q14676 143-339).
T3 construct: MDC1 intrinsically disordered region 1 (IDR1), residues 143-339; In the droplet and turbidity assays the protein is called mCherry-MDC1-IDR1; also called GST-tagged-mCherry-MDC1-IDR1; MDC1-IDR1; source: purified
T3 sequence (looked up): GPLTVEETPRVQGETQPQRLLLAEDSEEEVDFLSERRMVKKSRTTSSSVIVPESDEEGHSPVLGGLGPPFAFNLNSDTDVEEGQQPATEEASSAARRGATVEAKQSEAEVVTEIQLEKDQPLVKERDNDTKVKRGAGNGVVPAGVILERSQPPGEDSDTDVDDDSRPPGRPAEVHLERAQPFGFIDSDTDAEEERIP
Described as above.

T1 sequence (Q13547 whole entry, the tested form may be a part): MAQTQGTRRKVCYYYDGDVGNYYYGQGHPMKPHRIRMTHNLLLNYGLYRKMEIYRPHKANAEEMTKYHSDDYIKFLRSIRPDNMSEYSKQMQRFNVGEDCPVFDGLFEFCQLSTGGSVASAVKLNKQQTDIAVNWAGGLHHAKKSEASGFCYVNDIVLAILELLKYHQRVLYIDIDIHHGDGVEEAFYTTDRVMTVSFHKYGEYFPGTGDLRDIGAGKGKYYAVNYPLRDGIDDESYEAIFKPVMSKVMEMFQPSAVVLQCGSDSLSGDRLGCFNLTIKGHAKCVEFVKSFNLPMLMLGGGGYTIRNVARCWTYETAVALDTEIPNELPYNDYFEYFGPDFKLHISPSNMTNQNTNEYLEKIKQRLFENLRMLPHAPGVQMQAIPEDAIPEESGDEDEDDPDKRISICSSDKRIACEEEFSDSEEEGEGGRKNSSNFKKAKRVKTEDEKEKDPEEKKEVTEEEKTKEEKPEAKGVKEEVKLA

B1: GST-fusion HP1γ protein (natural protein)
chain: not shown
notes: HP1γ (CBX3) fused to GST; Probably made in E. coli BL21 as the other GST fusions of the methods (surmised); also called GST-HP1γ; GST-tagged-HP1γ; source: purified GST-fusion protein ('in vitro expression')
As to B1, the binding result with purified HDAC1-flag is “binds”.

B2: purified HP1γ-GFP (natural protein)
chain: not shown
notes: HP1γ (CBX3) fused to GFP; the HP1γ-GFP of the pull-down is probably the full-length one (surmised); also called GFP-HP1γ; source: E. coli BL21, purified (glutathione agarose, released by HRV 3C protease)
As to B2, the binding result in the assay with GST-MDC1-mC-IDR2 and with GST-MDC1-mC-IDR1 was “binds” throughout.
